{"source": "patent US20140219913A1", "target": "TNF-alpha", "assay": "cell-based or functional assay", "data": [{"substance": "Etanercept (Fc fusion)", "values": [{"measurement": "N-terminal L929 Assay (EC50, pM)", "result": 1.5, "unit": "pM"}]}]}
